Laboratory results: article PMC6591006

Biological target: Monoclonal anti-HIV-1 Env SF12 (IgG)
Assay: ELISA
Conditions: highest antibody concentration of the titration (last point of the curve, between 1 and 10 µg/ml); parent: est. 3.3; read off a plot

YU2 gp140 foldon trimer (wild type) A281T; D368K
response: 2.7 OD
